This note sets out measurements from paper PMC3651084.

For the assay, the target named is recombinant human HER3-Fc chimera (UniProt P21860). Description: flow cytometry on staphylococcal-displayed mutants. Conditions: parent: est. 83; read off a plot.
Chain of UniProt P21860 (P21860 20-643, change not shown): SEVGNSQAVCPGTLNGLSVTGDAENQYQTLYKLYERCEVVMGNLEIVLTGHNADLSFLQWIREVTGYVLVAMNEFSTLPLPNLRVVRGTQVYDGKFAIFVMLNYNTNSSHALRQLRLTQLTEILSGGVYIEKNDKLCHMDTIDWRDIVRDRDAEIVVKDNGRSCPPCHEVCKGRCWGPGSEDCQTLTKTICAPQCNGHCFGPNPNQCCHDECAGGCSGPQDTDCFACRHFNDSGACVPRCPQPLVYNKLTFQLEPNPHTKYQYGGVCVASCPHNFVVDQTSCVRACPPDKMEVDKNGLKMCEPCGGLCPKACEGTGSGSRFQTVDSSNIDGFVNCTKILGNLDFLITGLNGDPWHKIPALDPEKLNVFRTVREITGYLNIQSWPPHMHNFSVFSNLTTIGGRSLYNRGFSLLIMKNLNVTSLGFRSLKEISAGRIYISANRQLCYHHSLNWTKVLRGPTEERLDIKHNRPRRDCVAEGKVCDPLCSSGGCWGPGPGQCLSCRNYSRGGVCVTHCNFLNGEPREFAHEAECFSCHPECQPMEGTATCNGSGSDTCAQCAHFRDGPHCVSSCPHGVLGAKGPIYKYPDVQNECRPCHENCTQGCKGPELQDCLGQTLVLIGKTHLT

With “HER3-binding Affibody molecule Z05416, displayed on S. carnosus Y10A”, the response stood at 10.

With “HER3-binding Affibody molecule Z05416, displayed on S. carnosus V24A”, the response was determined as 78.

With “HER3-binding Affibody molecule Z05416, displayed on S. carnosus W17A”, the response was 10.

Regarding “HER3-binding Affibody molecule Z05416, displayed on S. carnosus R25A”, the response came out at 91.

For “HER3-binding Affibody molecule Z05416, displayed on S. carnosus Q18A”, the response came to 71.

Consider “HER3-binding Affibody molecule Z05416, displayed on S. carnosus S32A”, for which the response was found to be 93.

Consider “HER3-binding Affibody molecule Z05416, displayed on S. carnosus K9A”, for which the response was determined as 43.

As to “HER3-binding Affibody molecule Z05416, displayed on S. carnosus F14A”, the response was determined as 72.

For “HER3-binding Affibody molecule Z05416, displayed on S. carnosus A28L”, the response is 87.

With “HER3-binding Affibody molecule Z05416, displayed on S. carnosus T11A”, the response came out at 86.

As to “HER3-binding Affibody molecule Z05416, displayed on S. carnosus K27A”, the response came out at 100.

Take “HER3-binding Affibody molecule Z05416, displayed on S. carnosus Y13A”: the response was 66.

Turning to “HER3-binding Affibody molecule Z05416, displayed on S. carnosus Q35A”, the response was found to be 92.
